Results from patent publication US20210170043A1, “DC-SIGN ANTIBODY CONJUGATES COMPRISING STING AGONISTS” (NOVARTIS AG, priority 2018, published 2021).

Key:
[1] = tested on: CD11c+ dendritic cells of Tg+ mice; assay: Dendritic cell activation in DC-SIGN Tg+ mice (spleen, flow cytometry); assay type: in vivo, mouse
Method: Spleens were harvested 24 hours post dose and analyzed by flow cytometry to look at CD11c+ dendritic cells.

[2] = tested on: tumor and splenic immune cells; assay: Flow cytometry of spleen and tumor immune cells in tumor-bearing DC-SIGN transgenic mice (PDL1, T cell infiltration and activation); assay type: in vivo, mouse; conditions: Tg+ mice
From the text: FIGS. 19A-19B show exemplary data on DC-SIGN immunoconjugates inducing upregulation of surface PDL1.
FIGS. 20A-20F show exemplary data on DC-SIGN immunoconjugates enhancing tumor T cell infiltration and T cell activation.

M2 macrophages = assay: Activation of human M2 macrophages (M2 moMacs) in vitro, flow cytometry; assay type: cell-based; conditions: 24 hours incubation
Method: Primary human monocytes were isolated from a leukapheresis using magnetic bead selection and frozen for storage in liquid nitrogen. For monocyte DC (moDC) differentiation, cells were thawed and incubated in media containing GM-CSF and IL-4 for 7 days. For M2 macrophages (M2 moMacs), cells were thawed and incubated for 6 days with M-CSF containing media and then polarized with the addition of IL-4 for 24 hours. After the differentiation process for both moDC and moMacs, media was washed off and replaced with fresh media containing isotype control (DAPA version of Trastuzumab) C1, or DC-SIGN antibody C1 conjugates. Free T1-1 compound was used as a control. 24 hours after incubation with indicated compounds, cells were evaluated by flow cytometry for activation.
Peripheral blood Leukopaks from normal human donors were obtained from HemaCare. […]
Human CD14+ monocytes were isolated and frozen as described. […] Cells were counted and plated at 40,000-80,000 cells per well in a 384 well flat bottom tissue culture plate (Greiner). […]
24 hours after activation with compounds, cells were evaluated by flow cytometry according to the described protocol using antibody clones described in flow cytometry protocol section. DC-SIGN+CD11c+ HLA-DR+ cells were identified and assessed for CD86 expression and levels of DC-SIGN.

[3] = tested on: transgenic mice expressing human DC-SIGN gene (Tg+); assay: Plasma cytokine and chemokine levels in human DC-SIGN transgenic mice; assay type: in vivo, mouse; conditions: 6 hours post dose
Method: Blood was collected at 6 hours post dose to analyze plasma cytokine and chemokine levels and spleens were analyzed at 24 hours post dose to look at dendritic cell activation.
Mice were bled 6 hours after dosing to collect plasma for analysis of circulating cytokine levels.
Plasma was collected at indicated timepoints and analyzed with a Mouse IP-10 Platinum ELISA kit (eBioscience Affymetrix). Plasma was diluted 1:100 and the protocol was followed according to the manufacturer's recommendations. Data was collected using an Enspire spectro-photometer using […] as the primary wavelength.
Plasma was collected at indicated timepoints and analyzed with a Mouse IFN-beta ELISA kit (R&D Systems) according to the manufacturer's recommendations. Data was collected using an Enspire spectro-photometer using […] as the primary wavelength.
Plasma was collected at indicated timepoints and analyzed with a mouse Proinflammatory Panel 1 (mouse) Kit V-PLEX™ 10 plex from MesoScale Discovery. 25 μL of plasma per sample was used and protocol was followed according to the manufacturer's recommendations. Data were collected and analyzed using a Sector Imager 6000.
Human DC-SIGN transgenic mice (Tg+) (Schaefer et al., J. Immunol. (2008) 180 (10) 6836-6845) were bred to Signr1 deficient mice (−/− or KO) (Orr et al., Glycobiology (2013) 23(3): 363-380). Human DC-SIGN expression was checked using PCR to genotype the mice. Human DC-SIGN Tg+ Signr1−/− mice or human DC-SIGN Tg− Signr1−/− mice were tested with compounds as indicated in the above examples.

B1: 2B2 (DAPA) C1 (conjugate)
heavy: QVQLVQSGAEVKKPGASVKVSCKASGYTFTNYGINWVRQAPGQRLEWMGYIYIGNDYTEYNERFKGRVTITSDTSASTAYMELSSLRSEDTAVYYCARLYYGSSLYSYAMDYWGQGTTVTVSSASTKGPSVFPLAPSSKSTSGGTAALGCLVKDYFPCPVTVSWNSGALTSGVHTFPAVLQSSGLYSLSSVVTVPSSSLGTQTYICNVNHKPSNTKVDKRVEPKSCDKTHTCPPCPAPELLGGPSVFLFPPKPKDTLMISRTPEVTCVVVAVSHEDPEVKFNWYVDGVEVHNAKTKPREEQYNSTYRVVSVLTVLHQDWLNGKEYKCKVSNKALAAPIEKTISKAKGQPREPQVYTLPPSREEMTKNQVSLTCLVKGFYPCDIAVEWESNGQPENNYKTTPPVLDSDGSFFLYSKLTVDKSRWQQGNVFSCSVMHEALHNHYTQKSLSLSPGK
light: DIVMTQSPLSLPVTPGEPASISCRSSKSLLHSSGNTYLYWFLQKPGQSPQLLISRMSNLASGVPDRFSGSGSGTDFTLKISRVEAEDVGVYYCMQHLEYPYTFGGGTKVEIKRTVAAPSVFIFPPSDEQLKSGTASVVCLLNNFYPREAKVQWKVDNALQSGNSQESVTEQDSKDSTYSLSSTLTLSKADYEKHKVYACEVTHQGLSSPVTKSFNRGEC
CD80 upregulation on dendritic cells (DC activation) [1]: significantly upregulated
CD86 upregulation on dendritic cells (DC activation) [1]: significantly upregulated
surface PDL1 on splenic CD11c high dendritic cells ([2]; 1 mg/kg): significant upregulation
surface PDL1 on tumor resident dendritic cells and mMDSCs ([2]; 1 mg/kg): significant upregulation
CD3+ T cells in tumor ([2]; 24 and 48 hours post dosing): Increased
T cell activation as measured by CD69 upregulation on CD4 and CD8 T cells in tumors ([2]; 24 hours post dose): Enhanced T cell activation
CD8+ T cells in tumors ([2]; day 7 post dose): significant increase
FoxP3+ T regulatory cells in tumors ([2]; day 7 post dose): significant decrease
infiltration of CD8 T cells in tumors ([2]; in combination with anti-PDL1): enhanced infiltration of CD8 T cells
downregulation of DC-SIGN on macrophages (M2 macrophages): induced downregulation of DC-SIGN
macrophage activation as measured by CD86 upregulation (M2 macrophages): induced monocyte dendritic cell and macrophage activation
plasma IL-12p70 ([3]; 1 mg/kg i.v. (Fab2 1.33 mg/kg)): increased
plasma IP-10 ([3]; 1 mg/kg i.v. (Fab2 1.33 mg/kg, Fab 1.3 mg/kg)): increased
plasma TNFα ([3]; 1 mg/kg i.v.): increased
